For assay [1], the target named is T1, GST–PPARγ fusion protein (purified ligand binding domain of PPARγ).
T1 chain: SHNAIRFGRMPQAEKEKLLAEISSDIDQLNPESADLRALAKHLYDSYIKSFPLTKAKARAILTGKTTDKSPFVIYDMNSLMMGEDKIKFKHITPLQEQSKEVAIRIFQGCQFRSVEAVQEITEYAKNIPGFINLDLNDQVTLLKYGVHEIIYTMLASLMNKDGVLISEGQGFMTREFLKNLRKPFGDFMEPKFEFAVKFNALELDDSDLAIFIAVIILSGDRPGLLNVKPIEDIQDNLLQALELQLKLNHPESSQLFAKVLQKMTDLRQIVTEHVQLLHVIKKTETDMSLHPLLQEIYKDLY
Kind of assay: FRET or BRET; homogeneous TR-FRET as a1, 12-concentration dose–response of farglitazar; the EC50 is of the compound; delta ratio in % of the reference compound edaglitazone at 10 μM. Particulars: both partners purified. Background: BRET reads energy transfer from a luciferase to a nearby fluorophore.

Assay [2] concerns the target T1, GST–PPARγ fusion protein (purified …). The experiment in a line: FRET or BRET; homogeneous TR-FRET as a1, 12-concentration dose–response of RO4899100; the EC50 is of the compound; delta ratio in % of the reference compound at 10 μM (RO4899100 for PPARα, edaglitazone for PPARγ). The following applies: both partners purified.
The target is the same in assay [3]. The experiment in a line: FRET or BRET; homogeneous TR-FRET as a1, 12-concentration dose–response of aleglitazar; the EC50 is of the compound; delta ratio in % of the reference compound at 10 μM (RO4899100 for PPARα, edaglitazone for PPARγ). The following applies: both partners purified.
The target is the same in assay [4]. Kind of assay: FRET or BRET; homogeneous TR-FRET as a1, 12-concentration dose–response of edaglitazone; the EC50 is of the compound; delta ratio in % of the reference compound at 10 μM (RO4899100 for PPARα, edaglitazone for PPARγ). Particulars: both partners purified.
Assay [5] shares this target. Kind of assay: FRET or BRET; homogeneous TR-FRET as a1, 12-concentration dose–response of muraglitazar; the EC50 is of the compound; delta ratio in % of the reference compound at 10 μM (RO4899100 for PPARα, edaglitazone for PPARγ). The following applies: both partners purified.
Assay [6] has the same target. The experiment in a line: FRET or BRET; homogeneous TR-FRET as a1, 12-concentration dose–response of pioglitazone; the EC50 is of the compound; delta ratio in % of the reference compound at 10 μM (RO4899100 for PPARα, edaglitazone for PPARγ). Particulars: both partners purified.
For assay [7] the target is unchanged. Kind of assay: FRET or BRET; homogeneous TR-FRET as a1, 12-concentration dose–response of tesaglitazar; the EC50 is of the compound; delta ratio in % of the reference compound at 10 μM (RO4899100 for PPARα, edaglitazone for PPARγ). The following applies: both partners purified.
For assay [8] the target is unchanged. Kind of assay: FRET or BRET; homogeneous TR-FRET as a1, 12-concentration dose–response of rosiglitazone; the EC50 is of the compound; delta ratio in % of the reference compound at 10 μM (RO4899100 for PPARα, edaglitazone for PPARγ). The following applies: both partners purified.
Assay [9] has as its target T2, GST–PPARα fusion protein (purified ligand binding domain of PPARα).
T2 sequence (Q07869 whole entry, species assumed, looked up): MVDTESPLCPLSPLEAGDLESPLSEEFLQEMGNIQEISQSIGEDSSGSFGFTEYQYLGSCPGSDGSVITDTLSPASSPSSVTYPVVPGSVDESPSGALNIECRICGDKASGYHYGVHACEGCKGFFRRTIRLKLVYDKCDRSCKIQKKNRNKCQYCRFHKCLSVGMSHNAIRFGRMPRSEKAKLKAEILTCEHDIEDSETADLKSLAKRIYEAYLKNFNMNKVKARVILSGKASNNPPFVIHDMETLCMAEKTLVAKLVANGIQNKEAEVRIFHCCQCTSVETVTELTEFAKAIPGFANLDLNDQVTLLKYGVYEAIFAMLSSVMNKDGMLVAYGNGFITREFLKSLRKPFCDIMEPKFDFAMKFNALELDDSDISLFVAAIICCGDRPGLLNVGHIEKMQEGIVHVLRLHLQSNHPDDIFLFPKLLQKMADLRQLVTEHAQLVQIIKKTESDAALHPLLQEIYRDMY
Kind of assay: FRET or BRET; homogeneous TR-FRET as a1, 12-concentration dose–response of fenofibric acid; the EC50 is of the compound; delta ratio in % of the reference compound RO4899100 at 10 μM.

The target is the same in assay [10]. The experiment in a line: FRET or BRET; homogeneous TR-FRET as a1, 12-concentration dose–response of RO4899100; the EC50 is of the compound; delta ratio in % of the reference compound at 10 μM (RO4899100 for PPARα, edaglitazone for PPARγ).
Assay [11] shares this target. The experiment in a line: FRET or BRET; homogeneous TR-FRET as a1, 12-concentration dose–response of aleglitazar; the EC50 is of the compound; delta ratio in % of the reference compound at 10 μM (RO4899100 for PPARα, edaglitazone for PPARγ).
For assay [12] the target is unchanged. The experiment in a line: FRET or BRET; homogeneous TR-FRET as a1, 12-concentration dose–response of edaglitazone; the EC50 is of the compound; delta ratio in % of the reference compound at 10 μM (RO4899100 for PPARα, edaglitazone for PPARγ).
For assay [13] the target is unchanged. The experiment in a line: FRET or BRET; homogeneous TR-FRET as a1, 12-concentration dose–response of muraglitazar; the EC50 is of the compound; delta ratio in % of the reference compound at 10 μM (RO4899100 for PPARα, edaglitazone for PPARγ).
The target is the same in assay [14]. Kind of assay: FRET or BRET; homogeneous TR-FRET as a1, 12-concentration dose–response of tesaglitazar; the EC50 is of the compound; delta ratio in % of the reference compound at 10 μM (RO4899100 for PPARα, edaglitazone for PPARγ).
Assay [15] shares this target. Kind of assay: FRET or BRET; homogeneous TR-FRET as a1, 12-concentration dose–response of rosiglitazone; the EC50 is of the compound; delta ratio in % of the reference compound at 10 μM (RO4899100 for PPARα, edaglitazone for PPARγ).

Where no end group is shown, it is not given here. The star is where a group is joined. Biotin = O=C1N[C@H]2[C@H](CS[C@H]2CCCCC(=O)*)N1; Ahx = NCCCCCC(=O)O

B1: TRAP220 cofactor peptide (thyroid hormone receptor-associated protein complex 220 kDa component, motif 2) (peptide)
peptide: {Biotin-Ahx}-GNTKNHPMLMNLLKDNPAQDF
notes: thyroid hormone receptor-associated protein complex 220 kDa component (TRAP220), motif 2, residues 637-657; also called TRAP220_M2; TRAP220 M2; source: synthetic peptide (Jerini or Biosynthan, Berlin)
For B1, the “EC50 of farglitazar for recruitment” value in assay [1] is 3.5 nM. The “EC50 of RO4899100 for recruitment” value in [2] is 4410 nM. Also, the “EC50 of aleglitazar for recruitment” value in assay [3] amounted to 3.2 nM. Further, the “EC50 of edaglitazone for recruitment” value in assay [4] was determined as 9.5 nM. Moreover, the “EC50 of muraglitazar for recruitment” value in [5] stood at 6.2 nM. Moreover, the “EC50 of pioglitazone for recruitment” value in assay [6] amounted to 431 nM. Further, the “EC50 of tesaglitazar for recruitment” value in [7] amounted to 31.6 nM. Further, the “EC50 of rosiglitazone for recruitment” value in assay [8] worked out at 41.3 nM.

B2: SRC1_M4 cofactor peptide (steroid receptor co-activator 1, motif 4) (peptide)
peptide: {Biotin-Ahx}-TSGPQTPQAQQKSLLQQLLTE
notes: source: synthetic peptide (Jerini or Biosynthan, Berlin)
For B2, the “EC50 of farglitazar for recruitment” value in assay [1] turned out to be 3.3 nM. In addition, the “EC50 of RO4899100 for recruitment” value in assay [2] is 1450 nM. Besides, in assay [3], the “EC50 of aleglitazar for recruitment” value is 3.4 nM. Besides, the “EC50 of muraglitazar for recruitment” value in assay [5] is 6.1 nM. Besides, the “EC50 of pioglitazone for recruitment” value in assay [6] is 222 nM. In addition, in [7], the “EC50 of tesaglitazar for recruitment” value was 25.5 nM. Also, in assay [8], the “EC50 of rosiglitazone for recruitment” value was 23.5 nM.

B3: SRC1_M1 cofactor peptide (steroid receptor co-activator 1, motif 1) (peptide)
peptide: {Biotin-Ahx}-DSKYSQTSHKLVQLLTTTAEQQLRH
notes: as for B2
Turning to B3, the EC50 of fenofibric acid for recruitment in assay [9] is 4.36 µM. For the same molecule, in assay [9], the delta ratio with fenofibric acid is 39%. In addition, in assay [1], the “EC50 of farglitazar for recruitment” value was 8.6 nM. In assay [10], the EC50 of RO4899100 for recruitment was 16.1 nM. Moreover, the values for the EC50 of aleglitazar for recruitment in assay [11] and in [3] were 2.9 nM and 11 nM, respectively. In addition, the delta ratio with aleglitazar in assay [11] was found to be 94%. For the same molecule, the EC50 of edaglitazone for recruitment in assay [12] is 867 nM; in assay [4] it was 38.1 nM. Also, the delta ratio with edaglitazone in assay [12] was found to be 41%. For the same molecule, the EC50 of muraglitazar for recruitment stood at 186 nM in [13] and 35.6 nM in [5]. Moreover, the delta ratio with muraglitazar in [13] came to 74%. Further, the EC50 of tesaglitazar for recruitment came out at 427 nM in assay [14] and 226 nM in [7]. Also, the results for the EC50 of rosiglitazone for recruitment in assay [15] and in assay [8] were 2630 nM and 240 nM, respectively. The delta ratio with rosiglitazone in assay [15] was determined as 20%. In addition, the “EC50 of pioglitazone for recruitment” value in assay [6] came to 2260 nM.

B4: CBP cofactor peptide (cAMP responsive element binding protein (CREB)-binding protein) (peptide)
peptide: {Biotin-Ahx}-SGNLVPDAASKHKQLSELLRGGSGS
notes: as for B2
Take B4: the “EC50 of farglitazar for recruitment” value in assay [1] amounted to 3 nM. Further, in assay [2], the “EC50 of RO4899100 for recruitment” value was 1990 nM. Besides, in assay [3], the “EC50 of aleglitazar for recruitment” value is 3.3 nM. The “EC50 of edaglitazone for recruitment” value in assay [4] was determined as 7.2 nM. In assay [5], the “EC50 of muraglitazar for recruitment” value came out at 4.3 nM. In addition, the “EC50 of pioglitazone for recruitment” value in assay [6] was 79.1 nM. Further, the “EC50 of tesaglitazar for recruitment” value in assay [7] came to 13.9 nM. The “EC50 of rosiglitazone for recruitment” value in [8] worked out at 10.4 nM.

B5: SRC1_M3 cofactor peptide (steroid receptor co-activator 1, motif 3) (peptide)
peptide: {Biotin-Ahx}-LDASKKKESKDHQLLRYLLDKDEKD
notes: as for B2
B5: in assay [9], the EC50 of fenofibric acid for recruitment was 3.45 µM and the delta ratio with fenofibric acid came out at 47%. For the same molecule, the “EC50 of farglitazar for recruitment” value in [1] came to 12.1 nM. For the same molecule, the EC50 of RO4899100 for recruitment in assay [10] stood at 4.9 nM. In addition, in assay [11], the EC50 of aleglitazar for recruitment turned out to be 2.4 nM and the delta ratio with aleglitazar is 53%. In addition, in assay [13], the EC50 of muraglitazar for recruitment came to 8.4 nM and the delta ratio with muraglitazar was 23%. Further, in assay [14], the EC50 of tesaglitazar for recruitment was 111 nM and the delta ratio with tesaglitazar amounted to 52%. In assay [15], the EC50 of rosiglitazone for recruitment stood at 3070 nM and the delta ratio with rosiglitazone was found to be 21%. The “EC50 of aleglitazar for recruitment” value in assay [3] was 11.3 nM. For the same molecule, in assay [4], the “EC50 of edaglitazone for recruitment” value stood at 38.1 nM. Besides, the “EC50 of muraglitazar for recruitment” value in assay [5] is 37.4 nM. In assay [6], the “EC50 of pioglitazone for recruitment” value was 2120 nM. Also, the “EC50 of tesaglitazar for recruitment” value in assay [7] worked out at 196 nM. Moreover, the “EC50 of rosiglitazone for recruitment” value in [8] was 241 nM.

B6: SRC1_M2 cofactor peptide (steroid receptor co-activator 1, motif 2) (peptide)
peptide: {Biotin-Ahx}-CPSSHSSLTERHKILHRLLQEGSPS
notes: as for B2
For B6, the “EC50 of farglitazar for recruitment” value in assay [1] came out at 3.8 nM. Besides, the “EC50 of RO4899100 for recruitment” value in assay [2] came to 2080 nM. Further, the “EC50 of aleglitazar for recruitment” value in assay [3] turned out to be 3.2 nM. In addition, the “EC50 of edaglitazone for recruitment” value in assay [4] worked out at 9.8 nM. In addition, the “EC50 of muraglitazar for recruitment” value in assay [5] is 5.7 nM. The “EC50 of pioglitazone for recruitment” value in assay [6] worked out at 196 nM. The “EC50 of tesaglitazar for recruitment” value in [7] is 24.4 nM. Moreover, the “EC50 of rosiglitazone for recruitment” value in [8] turned out to be 18.5 nM.

These data come from article PMC3504387 (Chemmedchem, 2012).
